Patent US20240368285A1 (HEFEI TG IMMUNOPHARMA, published 2024)

Assays:
[1] = molecular target: T1, MICA002α3-Fc (human); assay: ELISA on coated MICA*002 α3-Fc (1 µg/ml), HRP anti-human Fab secondary, OD450
T1 construct: Produced in the Applicant's laboratory; also called MICA*002-Fc; domain α3 of MICA-002 Fc fusion protein

[2] = molecular target: T2, MICA005α3-Fc (human); assay: ELISA on coated MICA*005 α3-Fc (1 µg/ml), HRP anti-human Fab secondary, OD450
T2 construct: also called MICA*005-Fc; domain α3 of MICA-005 Fc fusion protein
T2 sequence (chain, as listed by the source limits assumed): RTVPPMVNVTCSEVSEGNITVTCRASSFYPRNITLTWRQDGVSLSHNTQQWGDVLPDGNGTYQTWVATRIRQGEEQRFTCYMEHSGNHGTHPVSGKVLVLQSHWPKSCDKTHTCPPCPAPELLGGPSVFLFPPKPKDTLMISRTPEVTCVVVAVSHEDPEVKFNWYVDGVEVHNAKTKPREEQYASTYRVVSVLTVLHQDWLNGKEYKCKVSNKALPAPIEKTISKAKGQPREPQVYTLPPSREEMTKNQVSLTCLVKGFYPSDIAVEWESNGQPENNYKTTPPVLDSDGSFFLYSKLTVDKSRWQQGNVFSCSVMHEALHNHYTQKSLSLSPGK

[3] = molecular target: T3, MICA on human tumor cells (A-375, A549, HCT-15, MDA-MB-231) (human, UniProt Q29983 24-383); assay: flow cytometry on A-549 cells, Alexa-647 goat anti-human secondary, % binding ratio
T3 construct: whole, on cells
T3 sequence (looked up): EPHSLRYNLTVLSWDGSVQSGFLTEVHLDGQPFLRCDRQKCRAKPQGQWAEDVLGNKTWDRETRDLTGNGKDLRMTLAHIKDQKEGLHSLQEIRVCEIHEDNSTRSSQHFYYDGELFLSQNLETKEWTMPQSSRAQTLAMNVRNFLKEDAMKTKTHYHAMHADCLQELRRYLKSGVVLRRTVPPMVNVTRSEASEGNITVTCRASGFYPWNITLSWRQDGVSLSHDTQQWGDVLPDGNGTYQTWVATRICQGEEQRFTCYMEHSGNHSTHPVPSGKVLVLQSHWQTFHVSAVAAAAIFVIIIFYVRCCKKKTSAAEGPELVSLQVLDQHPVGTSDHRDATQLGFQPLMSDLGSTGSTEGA
Description: (2) Tumor cells were diluted to a density of 2×10⁶/mL with PBS and added into a 1.5 ml EP tube in a volume of 100 l/tube. 10 l/tube of goat serum was added into the EP tube; and blocking was conducted at 4° C. for 30 min. […] The tube was incubated at 4° C. for 30 min. 1 mL of PBS was added into the EP tube, and centrifugation was conducted 4° C. at a rate of 3,500 rpm for 5 min. The supernatant was removed. Then, the EP tube was washed once with the PBS, and the supernatant was removed after centrifugation. The cells were resuspended with PBS in a volume of 100 l/tube. An Alexa-647 labeled goat anti-human secondary antibody (purchased from Jackson lab) was added into the tube in a volume of 1 l/tube, and the tube was incubated in the dark at 4° C. for 30 min. The tube was washed twice with PBS, and the supernatant was removed after centrifugation. The cells were resuspended with the PBS in a volume of 200 l/tube, and detection was conducted by a flow cytometer. The results are as shown in FIG. 17A and FIG. 17B, FIG. 18A and FIG. 18B, FIG. 19A and FIG. 19B, and FIG. 20A and FIG. 20B.

[4] = molecular target: T3, MICA on human tumor cells (A-375, A549, …); assay: flow cytometry on HCT-15 cells, Alexa-647 goat anti-human secondary, average fluorescence intensity
Description: (1) Tumor cells were diluted to a density of 2×10⁶/mL with PBS and then added into a 1.5 ml EP tube in a volume of 100 l/tube. 10 l/tube of goat serum was added into the EP tube; and blocking was conducted at 4° C. for 30 min. Antibody h5A1 (having a heavy chain sequence as set forth in SEQ ID NO: 11 and a light chain sequence as set forth in SEQ ID NO: 12), antibody h5A1002 (having a heavy chain sequence as set forth in SEQ ID NO: 13 and a light chain sequence as set forth in SEQ ID NO: 14), and control IgG1 (purchased from Biointron) were gradient-diluted (at a highest working concentration of 50 μg/ml, 10 gradients, diluted by 3 times for each gradient) and added. The tube was incubated at 4° C. for 30 min. 1 mL of PBS was added into the EP tube, and centrifugation was conducted 4° C. at a rate of 3,500 rpm for 5 min. The supernatant was removed. The EP tube was washed once with the PBS. The supernatant was removed after centrifugation. The cells were resuspended with PBS in a volume of 100 l/tube. An Alexa-647 labeled goat anti-human secondary antibody (purchased from Jackson lab) was added into the tube in a volume of 1 l/tube; and the plate was incubated in the dark at 4° C. for 30 min. The tube was washed twice with PBS, and the supernatant was removed after centrifugation. […]

[5] = molecular target: T3, MICA on human tumor cells (A-375, A549, …); assay: flow cytometry competition on HCT-15 cells; competitor: Biotin-h5A1002, detected with Alexa-647 streptavidin; % binding ratio of Biotin-h5A1002
Description: HCT-15 cells were diluted to a density of 2×10⁶/mL with PBS and added into a 1.5 ml EP tube in a volume of 100 l/tube. 10 l/tube of goat serum was added into the EP tube, and blocking was conducted at 4° C. for 30 min. […] The tube was incubated at 4° C. for 30 min. A biotin-labeled affinity maturation antibody Biotin-h5A1002 (having a heavy chain sequence as set forth in SEQ ID NO: 13 and a light chain sequence as set forth in SEQ ID NO: 14) was added. The tube was incubated at 4° C. for 30 min. 1 mL of PBS was added into the EP tube, and centrifugation was conducted 4° C. at a rate of 3,500 rpm for 5 min. The supernatant was removed. The EP tube was washed once with the PBS, and the supernatant was removed after centrifugation. The cells were resuspended with PBS in a volume of 100 l/tube. An Alexa-647 labeled Streptavidin secondary antibody (purchased from Biolegend) was added into the tube in a volume of 1 l/tube, and the tube was incubated in the dark at 4° C. for 30 min. The tube was washed twice with PBS, and the supernatant was removed after centrifugation. The cells were resuspended with the PBS in a volume of 200 μl/tube, and detection was conducted by a flow cytometer.

T1 sequence (chain, as listed by the source limits assumed): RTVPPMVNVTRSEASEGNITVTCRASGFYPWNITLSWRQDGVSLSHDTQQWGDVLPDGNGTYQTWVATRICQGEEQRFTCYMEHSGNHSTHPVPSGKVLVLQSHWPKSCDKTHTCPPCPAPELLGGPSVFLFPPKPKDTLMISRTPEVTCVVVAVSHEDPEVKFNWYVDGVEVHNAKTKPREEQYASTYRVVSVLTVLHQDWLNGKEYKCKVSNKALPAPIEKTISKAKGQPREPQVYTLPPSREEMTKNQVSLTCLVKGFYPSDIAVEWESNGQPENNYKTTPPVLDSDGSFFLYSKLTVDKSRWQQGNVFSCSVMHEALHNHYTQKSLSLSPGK

EC50 (read off the curve) [1]: ~0.04 µg/mL
EC50 (read off the curve) [2]: ~0.04 µg/mL
EC50 (read off the curve) [3]: ~0.4 µg/mL
EC50 (read off the curve) [4]: ~1 µg/mL
IC50 (read off the curve) [5]: ~1 µg/mL
B1: affinity maturation antibody h5A1002 (antibody, V domains shown)
VH: QVQLQESGPGLVKPSETLSLTCTVSGFSLTTYGGHWIRQPPGKGLEWIGMIWTDGWTDYNAAFISRVTISVDTSKNQFSLKLSSVTAADTAVYYCARKGHGYYYAMDYWGQGTLVTVSS
VL: EIVLTQSPGTLSLSPGERATLSCTASSSVSSSYLHWYQQKPGQAPRLLIYSTSNLISGIPDRFSGSGSGTDFTLTISRLEPEDFAVYYCHQYHRSPFTFGQGTKLEIKR
notes: Human IgG1, kappa; also called h5A1002-hIgG1
